# System: HEK293FT cells transfected with TF library
# Test: Screening of TF condensates based on fluorescent puncta
# Assay type: cell-based
# Settings: Figure 1B numerical data; TF library screen, one value per transcriptional factor
# Outline: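 TF plasmids (final 1.6 μg/ml) reverse-transfected with PEI (4.8 μg/ml) into HEK293FT cells; after 60 h, cells cultured ±glucose for 12 h, fixed in 4% PFA and immunostained for Flag or GAL4 tags with Alexa 488 secondaries. Puncta scored by automated imaging of 50 random fields per well.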
row,Molecule,Z score of condensed fraction
1,"CEBPG (protein, UniProt P53567 1-150, looked up) CCAAT/enhancer-binding …: MSKISQQNSTPGVNGISVIHTQAHASGLQQVPQLVPAGPGGGGKAVAPSKQSKKSSPMDRNSDEYRQRRERNNMAVKKSRLKSKQKAQDTLQRVNQLKEENERLEAKIKLLTKELSVLKDLFLEHAHNLADNVQSISTENTTADGDNAGQ",0.2566
2,"AATF (protein, UniProt Q9JKX4 2-526, looked up) Protein AATF: AAPQPLALQLEQLLNPRPREADPEADPEEATRARVIDRFDEGEEEKDDLAVSSIRKLAPVSLLDTDKRYSGKTTSRKAWKEDHWEQALPSSSDNEASDEGGSEDGDSEGLGLEEISEDVDEDLEDNKISDEGGSEDGDSEGLGLEEFSEDVEEDLEGEDEEDREEDRNSEDDGVVAAFSSVKVSEEVEKGRAVKNQIALWDQLLEGRIKLQKALLTTNQLPQPDVFPVFKDKGGPEFASALKNSHKALKALLRSLVDLQEELLFQYPDTRHIVNGAKPNTESEEISSEDDELVGEKKKQRKAPPKRKLEMEDYPSFMAKRFADFTIYRNHTLQKWHDKTKLASGKLGKGFGAFERSILTQIDHIMMDKERLLRRTQTKRSAYRVLGKPEPVPEPVAETLPGEPETLPQGPANAHLRDLDEEIFDDDDFYHQLLRELIERKTSSLDPNDQVAMGRQWLAIQKLRSKIRKKVDRKASKGRKLRFHVLSKLLSFMAPIDHTAMSDDARTELFRSLFGQLNPPDADRGK",-0.6879
3,"ZZZ3 (protein, UniProt Q8IYH5 1-903, looked up) ZZ-type zinc …: MAASRSTRVTRSTVGLNGLDESFCGRTLRNRSIAHPEEISSNSQVRSRSPKKRPEPVPIQKGNNNGRTTDLKQQSTRESWVSPRKRGLSSSEKDNIERQAIENCERRQTEPVSPVLKRIKRCLRSEAPNSSEEDSPIKSDKESVEQRSTVVDNDADFQGTKRACRCLILDDCEKREIKKVNVSEEGPLNSAVVEEITGYLAVNGVDDSDSAVINCDDCQPDGNTKQNSIGSYVLQEKSVAENGDTDTQTSMFLDSRKEDSYIDHKVPCTDSQVQVKLEDHKIVTACLPVEHVNQLTTEPATGPFSETQSSLRDSEEEVDVVGDSSASKEQCKENTNNELDTSLESMPASGEPEPSPVLDCVSAQMMSLSEPQEHRYTLRTSPRRAAPTRGSPTKNSSPYRENGQFEENNLSPNETNATVSDNVSQSPTNPGEISQNEKGICCDSQNNGSEGVSKPPSEARLNIGHLPSAKESASQHITEEEDDDPDVYYFESDHVALKHNKDYQRLLQTIAVLEAQRSQAVQDLESLGRHQREALKNPIGFVEKLQKKADIGLPYPQRVVQLPEIVWDQYTHSLGNFEREFKNRKRHTRRVKLVFDKVGLPARPKSPLDPKKDGESLSYSMLPLSDGPEGSSSRPQMIRGRLCDDTKPETFNQLWTVEEQKKLEQLLIKYPPEEVESRRWQKIADELGNRTAKQVASRVQKYFIKLTKAGIPVPGRTPNLYIYSKKSSTSRRQHPLNKHLFKPSTFMTSHEPPVYMDEDDDRSCFHSHMNTAVEDASDDESIPIMYRNLPEYKELLQFKKLKKQKLQQMQAESGFVQHVGFKCDNCGIEPIQGVRWHCQDCPPEMSLDFCDSCSDCLHETDIHKEDHQLEPIYRSETFLDRDYCVSQGTSYNYLDPNYFPANR",-0.9122
4,"CLOCK (protein, UniProt O15516 1-846, looked up) Circadian locomoter output …: MLFTVSCSKMSSIVDRDDSSIFDGLVEEDDKDKAKRVSRNKSEKKRRDQFNVLIKELGSMLPGNARKMDKSTVLQKSIDFLRKHKEITAQSDASEIRQDWKPTFLSNEEFTQLMLEALDGFFLAIMTDGSIIYVSESVTSLLEHLPSDLVDQSIFNFIPEGEHSEVYKILSTHLLESDSLTPEYLKSKNQLEFCCHMLRGTIDPKEPSTYEYVKFIGNFKSLNSVSSSAHNGFEGTIQRTHRPSYEDRVCFVATVRLATPQFIKEMCTVEEPNEEFTSRHSLEWKFLFLDHRAPPIIGYLPFEVLGTSGYDYYHVDDLENLAKCHEHLMQYGKGKSCYYRFLTKGQQWIWLQTHYYITYHQWNSRPEFIVCTHTVVSYAEVRAERRRELGIEESLPETAADKSQDSGSDNRINTVSLKEALERFDHSPTPSASSRSSRKSSHTAVSDPSSTPTKIPTDTSTPPRQHLPAHEKMVQRRSSFSSQSINSQSVGSSLTQPVMSQATNLPIPQGMSQFQFSAQLGAMQHLKDQLEQRTRMIEANIHRQQEELRKIQEQLQMVHGQGLQMFLQQSNPGLNFGSVQLSSGNSSNIQQLAPINMQGQVVPTNQIQSGMNTGHIGTTQHMIQQQTLQSTSTQSQQNVLSGHSQQTSLPSQTQSTLTAPLYNTMVISQPAAGSMVQIPSSMPQNSTQSAAVTTFTQDRQIRFSQGQQLVTKLVTAPVACGAVMVPSTMLMGQVVTAYPTFATQQQQSQTLSVTQQQQQQSSQEQQLTSVQQPSQAQLTQPPQQFLQTSRLLHGNPSTQLILSAAFPLQQSTFPQSHHQQHQSQQQQQLSRHRTDSLPDPSKVQPQ",-0.2095
5,"CREM (protein, UniProt Q03060 1-345, looked up) cAMP-responsive element …: MTMETVESQHDGSITASLTESKSAHVQTQTGQNSIPALAQVSVAGSGTRRGSPAVTLVQLPSGQTIHVQGVIQTPQPWVIQSSEIHTVQVAAIAETDESAESEGVIDSHKRREILSRRPSYRKILNELSSDVPGVPKIEEERSEEEGTPPSIATMAVPTSIYQTSTGQYIAIAQGGTIQISNPGSDGVQGLQALTMTNSGAPPPGATIVQYAAQSADGTQQFFVPGSQVVVQDEETELAPSHMAAATGDMPTYQIRAPTAALPQGVVMAASPGSLHSPQQLAEEATRKRELRLMKNREAAKECRRRKKEYVKCLESRVAVLEVQNKKLIEELETLKDICSPKTDY",-0.7399
6,"ABT1 (protein, UniProt Q9ULW3 1-272, looked up) Activator of basal …: MEAEESEKAATEQEPLEGTEQTLDAEEEQEESEEAACGSKKRVVPGIVYLGHIPPRFRPLHVRNLLSAYGEVGRVFFQAEDRFVRRKKKAAAAAGGKKRSYTKDYTEGWVEFRDKRIAKRVAASLHNTPMGARRRSPFRYDLWNLKYLHRFTWSHLSEHLAFERQVRRQRLRAEVAQAKRETDFYLQSVERGQRFLAADGDPARPDGSWTFAQRPTEQELRARKAARPGGRERARLATAQDKARSNKGLLARIFGAPPPSESMEGPSLVRDS",-0.3156
7,"CREBL2 (protein, UniProt O60519 1-120, looked up) cAMP-responsive …: MDDSKVVGGKVKKPGKRGRKPAKIDLKAKLERSRQSARECRARKKLRYQYLEELVSSRERAICALREELEMYKQWCMAMDQGKIPSEIKALLTGEEQNKSQQNSSRHTKAGKTDANSNSW",0.3406
8,"CREB5 (protein, UniProt Q02930 1-508, looked up) Cyclic AMP-responsive …: MIYEESKMNLEQERPFVCSAPGCSQRFPTEDHLMIHRHKHEMTLKFPSIKTDNMLSDQTPTPTRFLKNCEEVGLFSELDCSLEHEFRKAQEEESSKRNISMHNAVGGAMTGPGTHQLSSARLPNHDTNVVIQQAMPSPQSSSVITQAPSTNRQIGPVPGSLSSLLHLHNRQRQPMPASMPGTLPNPTMPGSSAVLMPMERQMSVNSSIMGMQGPNLSNPCASPQVQPMHSEAKMRLKAALTHHPAAMSNGNMNTMGHMMEMMGSRQDQTPHHHMHSHPHQHQTLPPHHPYPHQHQHPAHHPHPQPHHQQNHPHHHSHSHLHAHPAHHQTSPHPPLHTGNQAQVSPATQQMQPTQTIQPPQPTGGRRRRVVDEDPDERRRKFLERNRAAATRCRQKRKVWVMSLEKKAEELTQTNMQLQNEVSMLKNEVAQLKQLLLTHKDCPITAMQKESQGYLSPESSPPASPVPACSQQQVIQHNTITTSSSVSEVVGSSTLSQLTTHRTDLNPIL",-0.7141
9,"CJUN (protein, UniProt P05412 1-331, looked up) Transcription factor Jun: MTAKMETTFYDDALNASFLPSESGPYGYSNPKILKQSMTLNLADPVGSLKPHLRAKNSDLLTSPDVGLLKLASPELERLIIQSSNGHITTTPTPTQFLCPKNVTDEQEGFAEGFVRALAELHSQNTLPSVTSAAQPVNGAGMVAPAVASVAGGSGSGGFSASLHSEPPVYANLSNFNPGALSSGGGAPSYGAAGLAFPAQPQQQQQPPHHLPQQMPVQHPRLQALKEEPQTVPEMPGETPPLSPIDMESQERIKAERKRMRNRIAASKCRKRKLERIARLEEKVKTLKAQNSELASTANMLREQVAQLKQKVMNHVNSGCQLMLTQQLQTF",2.466
10,"CEBPE (protein, UniProt Q15744 1-281, looked up) CCAAT/enhancer-binding …: MSHGTYYECEPRGGQQPLEFSGGRAGPGELGDMCEHEASIDLSAYIESGEEQLLSDLFAVKPAPEARGLKGPGTPAFPHYLPPDPRPFAYPPHTFGPDRKALGPGIYSSPGSYDPRAVAVKEEPRGPEGSRAASRGSYNPLQYQVAHCGQTAMHLPPTLAAPGQPLRVLKAPLATAAPPCSPLLKAPSPAGPLHKGKKAVNKDSLEYRLRRERNNIAVRKSRDKAKRRILETQQKVLEYMAENERLRSRVEQLTQELDTLRNLFRQIPEAANLIKGVGGCS",-0.2607
11,"ZXDA (protein, UniProt P98168 1-799, looked up) Zinc finger X-linked protein …: MEIPKLLPARGTLQGGGGGGIPAGGGRVHRGPDSPAGQVPTRRLLLPRGPQDGGPGRRREEASTASRGPGPSLFAPRPHQPSGGGDDFFLVLLDPVGGDVETAGSGQAAGPVLREEAKAGPGLQGDESGANPAGCSAQGPHCLSAVPTPAPISAPGPAAAFAGTVTIHNQDLLLRFENGVLTLATPPPHAWEPGAAPAQQPRCLIAPQAGFPQAAHPGDCPELRSDLLLAEPAEPAPAPAPQEEAEGLAAALGPRGLLGSGPGVVLYLCPEALCGQTFAKKHQLKMHLLTHSSSQGQRPFKCPLGGCGWTFTTSYKLKRHLQSHDKLRPFGCPAEGCGKSFTTVYNLKAHMKGHEQENSFKCEVCEESFPTQAKLGAHQRSHFEPERPYQCAFSGCKKTFITVSALFSHNRAHFREQELFSCSFPGCSKQYDKACRLKIHLRSHTGERPFLCDFDGCGWNFTSMSKLLRHKRKHDDDRRFMCPVEGCGKSFTRAEHLKGHSITHLGTKPFVCPVAGCCARFSARSSLYIHSKKHLQDVDTWKSRCPISSCNKLFTSKHSMKTHMVKRHKVGQDLLAQLEAANSLTPSSELTSQRQNDLSDAEIVSLFSDVPDSTSAALLDTALVNSGILTIDVASVSSTLAGHLPANNNNSVGQAVDPPSLMATSDPPQSLDTSLFFGTAATGFQQSSLNMDEVSSVSVGPLGSLDSLAMKNSSPEPQALTPSSKLTVDTDTLTPSSTLCENSVSELLTPAKAEWSVHPNSDFFGQEGETQFGFPNAAGNHGSQKERNLITVTGSSFLV",-0.8138
12,"CEBPD (protein, UniProt P49716 2-269, looked up) CCAAT/enhancer-binding …: SAALFSLDGPARGAPWPAEPAPFYEPGRAGKPGRGAEPGALGEPGAAAPAMYDDESAIDFSAYIDSMAAVPTLELCHDELFADLFNSNHKAGGAGPLELLPGGPARPLGPGPAAPRLLKREPDWGDGDAPGSLLPAQVAACAQTVVSLAAAGQPTPPTSPEPPRSSPRQTPAPGPAREKSAGKRGPDRGSPEYRQRRERNNIAVRKSRDKAKRRNQEMQQKLVELSAENEKLHQRVEQLTRDLAGLRQFFKQLPSPPFLPAAGTADCR",-0.4872
